The target in the assay is MBP-FhtR (Faecalis heme transport Regulator fused to the maltose binding protein) (Enterococcus faecalis OG1RF). The assay is described as follows: SEC.

1 substance from doi:10.1101/2020.06.22.166298 can be followed below.

The term stoichiometry N denotes the number of molecules, sites or subunits per partner or assembly.

For “MBP-FhtR (Faecalis heme transport Regulator fused to the maltose binding protein) (natural protein)”, the stoichiometry N was found to be 2.
